# Experimental data from patent US20250333760A1, “TEMPERATURE-SENSITIVE NEGATIVE-STRAND RNA VIRUS OR VIRUS VECTOR AND RNA GENOME THEREOF” (REPLI-TECH CO., LTD., priority 2021, published 2025).
# Tested on: HeLa cells
# Experiment: Relative fluorescence intensity of EmGFP having degron (DD tag and mutants) added, expressed from SeV in HeLa cells
# Type: cell-based
# Details: for Relative fluorescence intensity of EmGFP having degron added thereto, Shield1: 1 μM of Shield-1; for Relative fluorescence intensity of EmGFP having degron added thereto, Shield1 / Relative fluorescence intensity of EmGFP having degron added thereto, dTAG-13 / Relative fluorescence intensity of EmGFP having degron added thereto, (—): 3 days after infection, MOI=10; for Relative fluorescence intensity of EmGFP having degron added thereto, dTAG-13: 5 μM of dTAG-13; for Relative fluorescence intensity of EmGFP having degron added thereto, (—): no Shield-1 or dTAG-13; for Shield1/(—) / Shield1/dTAG-13: ratio of relative fluorescence intensities
# Description: The addition of a proteolytic tag (degron) to a P protein can facilitate the elimination of a SeV. A DD tag is a type of proteolytic tag (see, for example, US 2009/0215169 A). The DD tag (see SEQ ID NO: 18) is a protein of 107 amino acids in length, obtained by introducing F36V and L106P into FKBP12. Adding a low molecular weight compound, Shield-1 provides stabilization, and adding dTAG-13 also promotes degradation of the protein fused with the tag. In the present Example, a DD mutant (DDm; see SEQ ID NO: 19) having 11 mutations (4I, 18K, 36L, 501, 57K, 59F, 63A, 68L, 90V, 981, and 105R) in a DD tag was constructed. In the present Example, in order to investigate the proteolysis-promoting effect of the DDm, the DD tag and its mutants (including the DDm) were added to EmGFP at its C-terminal and loaded at the + position of the SeV vector (having the above mutation described in WO 2003/025570). HeLa cells were infected with the resulting SeV (MOI=10). On the day after infection, 1 μM of Shield-1 or 5 μM of dTAG-13 was added thereto, and the fluorescence from the cell was observed 3 days after infection. When a DDrs tag having the amino acid sequence set forth in SEQ ID NO: 28 was constructed and added to EmGFP at its C-terminal, the effect of stabilizing EmGFP by Sheild-1 was not obtained and the fluorescence intensity was only about 20% of that of a DD-tagged EmGFP (FIG. 8).
molecule,measurement,setting,value
DDm (protein) GVQIETISPGDGRTFPKKGQTCVVHYTGMLEDGKKLDSSRDRNKPFKFMIGKQEVIKGFEEGAAQMSLGQRAKLTISPDYAYGATGHPGVIPPHATLIFDVELLRPE,"Relative fluorescence intensity of EmGFP having degron added thereto, Shield1",37° C.,140.4%
same,"Relative fluorescence intensity of EmGFP having degron added thereto, dTAG-13",37° C.,0.478%
same,"Relative fluorescence intensity of EmGFP having degron added thereto, (—)",37° C.,15.0%
same,Shield1/(—),37° C.,9.39
same,Shield1/dTAG-13,37° C.,293.9
same,"Relative fluorescence intensity of EmGFP having degron added thereto, Shield1",38.5° C.,153%
same,"Relative fluorescence intensity of EmGFP having degron added thereto, dTAG-13",38.5° C.,0.05%
same,"Relative fluorescence intensity of EmGFP having degron added thereto, (—)",38.5° C.,2.5%
same,Shield1/(—),38.5° C.,61.47
same,Shield1/dTAG-13,38.5° C.,3181.7
same,ratio of Shield1/dTAG-13 (in words),"Tables 6 and 7, 37° C. and 38.5° C.",significantly improved
